What is called stoichiometry N is a count of units in the complex or per binding partner.

Where two headings read alike, the source gives them in different places. No end group written: not given here.

Here are results for eight substances from paper PMC5723990, “Calmodulin regulates Cav3 T-type channels at their gating brake” (The Journal of Biological Chemistry, 2017).

A short description of data set [1]: Aggregation of peptides in buffers. To be noted: observation during CD (PBS: 10 mM sodium phosphate pH 7.3, 137 mM NaCl) and ITC sample preparation. Format: physicochemical. How it is done: CD measurements were performed using a Jasco-715 spectropolarimeter (Jasco Instruments, Easton, MD), using the following parameters: 250–190-nm range, 50 nm/min speed, with 1-s response time, 1-nm bandwidth, and 100-millidegree sensitivity at room temperature. 16–25 accumulations were gathered depending on signal quality. Recordings were made in a 1-mm cuvette, in 10 mM sodium phosphate buffer with 0.1 mM added CaCl2, and used as baseline, which was subtracted from each recording. For CaM and CaMB peptide spectra, the same solution of 10 μM CaM was scanned before stock (1 mM) peptide was added in incremental amounts before being scanned again. The resulting spectra were subtracted (e.g. CaM and CaMB peptide-CaM alone) to extract the spectrum corresponding to the change associated with adding the peptide. Every recording was an average of at least 16 accumulations and subsequently corrected for protein concentration (converted to units of mean residue ellipticity). These were smoothed and exported into ASCII format for analysis with Excel and either SOMCD or Dichroweb K2d algorithm (http://dichroweb.cryst.bbk.ac.uk)^6 ([92], [93]). […]
(§1) Heat gain or heat requirements in the sample cell (for exothermic binding or endothermic binding, respectively) correspond to the direction of the injection peaks measured in the isothermal titration calorimeter (MicroCal iTC200, Malvern Instruments, UK). […]

A further data set deals with Ca^2+–CaM. The data set is described as follows: Gel mobility-shift assay with CaM. Format: binding, rat. To be noted: molar ratio of CaMB peptide to CaM for saturating gel-mobility shift; native PAGE, 0.1 mM CaCl2, ratios 0.5–4×, incubated ≥1 h at 4 °C; three replicate experiments. How it is done: (§2) We followed protocols that we have described previously in an analysis of CaM binding with snail or human L-type calcium channel peptides in the presence of 0.1 or 0.5 mM CaCl2-containing solution ([9]).
(§3) Rat CaM was purified using phenyl-Sepharose 6 Fast-Flow (High Sub) (GE Healthcare), packed to ∼10 ml volume, by gravity flow at 4 °C. Codon-optimized CaM was cloned in pET9d, a T7 Escherichia coli expression vector. CaM was transformed into BL21 DE3 E. coli and grown at 37 °C and 200 rpm to OD of 0.4–0.6 (for Luria Broth, LB) or 0.5–0.9 (for SuperBroth, SB), at which point samples were induced by 1 mM added isopropyl β-D-1-thiogalactopyranoside and grown for another 4 (for SB) to 6 (for LB) h. Robust expression of soluble CaM was confirmed by SDS-PAGE. Cells were collected by centrifugation at ∼4000 × g, then lysed in high-salt buffer (0.1 M Tris-Cl, pH 7.5, 0.5 M NaCl, 0.5 M ammonium sulfate, 1 mM DTT) using an Avestin Emulsiflex homogenizer at 15,000–20,000 p.s.i. with jacketed water cooling, through which the cells were passed ∼3× on average. The cell lysate was clarified by centrifugation at 20,000 rpm in an SS-34 rotor (∼50,000 × g) at 4 °C for 30 min. To the cleared lysate, CaCl2 was added to a final concentration of 10 mM. The lysate was then applied to the gravity phenyl-Sepharose column equilibrated with the same high salt buffer (and 1 mM CaCl2). […]

Data set [2] concerns the target T1, N-CaM (N-lobe of CaM, 74-aa construct) (Homo sapiens, UniProt P0DP23).
T1 construct: partial CaMs: N-CaM(1–74), C-CaM(75–148); His tag; made in house; host or cells: bacteria (E. coli)
The data set is described as follows: Isothermal titration calorimetry with N-lobe of CaM. Conditions: ITC, one-set-of-sites fit, 25 °C, 10 mM HEPES pH 7.0, 0.1 mM CaCl2, mean of n = 3 (Fig. 6A), read-out: Binding affinity (Ka).
Excerpt: (§4) We have used human CaM and associated CaM mutants that we have described before ([9]), CaM(1–44) and partial CaMs: N-CaM(1–74), C-CaM(75–148), and CaMs that simulate CaM binding in the absence of calcium, by substitution of glutamate residues in the two calcium-binding sites in the N-terminal lobe (CaM12) or C-terminal lobe (CaM34), or mutation of all four calcium-binding sites (CaM1234) of CaM. CaM–GFP used for Western blotting is a construct consisting of GFP fused to the C terminus of CaM expressed in pcDNA3.1 (Cell Signaling Technology) ([83]). EGFP expression vector was obtained by subcloning EGFP from pEGFP-C1 (BD Biosciences) into the multiple cloning site of pcDNA3.1. The CaM1234 overexpression construct contained bicistronic marker mRFP (to generate a red color) ([46]) to distinguish from the channel expression with bicistronic EGFP (to generate a green color). The CaM1234 overexpression construct also containing CaM shRNA knockdown includes two short hairpin sequences described above to knock down CaM (Calm1,2,3 genes) ([46][–][48]). […]
as §1
On the technique in general: Isothermal titration calorimetry measures the heat released or taken up as one component is titrated into another.

Data set [3] deals with T2, C-CaM (C-lobe of CaM, 74-aa construct) (Homo sapiens, UniProt P0DP23).
T2 construct: partial CaMs: N-CaM(1–74), C-CaM(75–148); His tag; made in house; host or cells: bacteria (E. coli)
The experiment in a line: Isothermal titration calorimetry with C-lobe of CaM. Conditions: ITC, one-set-of-sites fit, 25 °C, 10 mM HEPES pH 7.0, 0.1 mM CaCl2, mean of n = 3 (Fig. 6A), read-out: Binding affinity (Ka).
Excerpt: as §4, §1

Data set [4] deals with T3, Ca^2+–CaM (wild-type calmodulin) (Rattus norvegicus, UniProt P0DP29).
T3 construct: His tag; made in house; host or cells: E. coli BL21 DE3 (pET9d)
The experiment in a line: Isothermal titration calorimetry of CaMB peptides with wild-type CaM. Conditions: ITC, one-set-of-sites fit, 25 °C, 10 mM HEPES pH 7.0, 0.1 mM CaCl2 (b23 says 0.5 mM CaCl2), mean of n = 3 (Fig. 6A), read-out: Binding affinity (Ka). How it is done: as §2
as §3, with “average.” for “average. The cell lysate was clarified by centrifugation at 20,000 rpm in an SS-34 rotor (∼50,000 × g) at 4 °C for 30 min. To the cleared lysate, CaCl2 was added to a final concentration of 10 mM. The lysate was then applied to the gravity phenyl-Sepharose column equilibrated with the same high salt buffer (and 1 mM CaCl2).”
as §1

For data set [5], the target named is calmodulin (CaM), wild type, bacterially expressed (rat) (UniProt P0DP29). The data set is described as follows: ITC; 10 mM HEPES pH 7.0, 0.1 mM CaCl2 (results: 0.5 mM CaCl2), 25 °C, one-set-of-sites model, mean of three replicates.
For data set [6], the target named is CaM_(1234), CaM with all four Ca^2+-binding sites mutated (human) (UniProt P0DP23). Described as above.
Data set [7] deals with calmodulin (CaM), wild type, bacterially expressed (rat) (UniProt P0DP29). The description is as above. This is another data set of the same source.
Data set [8] shares this target. The data set is described as follows: native gel or EMSA; gel-mobility shift of CaM with 0.5–4× molar ratios of peptide; native gels with 4 M urea, 0.1 mM CaCl2 in running buffer; incubation ≥1 h at 4 °C in 150 mM NaCl, 50 mM Tris-Cl pH 7.5, 1 mM CaCl2. (In EMSA bound probe runs differently from free probe, usually more slowly.)
The target in data set [9] is C-CaM(75–148), C-terminal lobe of CaM (human) (UniProt P0DP23). The data set is described as follows: ITC; 10 mM HEPES pH 7.0, 0.1 mM CaCl2 (results: 0.5 mM CaCl2), 25 °C, one-set-of-sites model, mean of three replicates.

Turning to YEEIFQYVCHILRKAKRRALGLYQAL [Cav3.3], in data set [1], the aggregation entry is listed as “severe aggregation issues in PBS”. In the data set with Ca^2+–CaM, the “[CaMB Peptide] for Complete shift” value is reported as greater than 4.0 x.

YEELLKYLVYILRKAARRLAQVSRAA [Cav3.1]: in data set [1], the aggregation entry is on record as “severe aggregation issues in PBS”. For the same substance, the “[CaMB Peptide] for Complete shift” value in the data set with Ca^2+–CaM amounted to 1.5 x.

In the case of YEELLKYVGHIFRKVKRRSLRLYARW [Cav3.2], the Kd stood at 31.1 nM in [2], 691 nM in data set [3] and 187 nM in data set [4].

For YSELLKLVAQVYRRVKRKVIKTYYKT [LCav3], in data set [4], the Kd came to 12.4 nM.

Turning to “human Cav3.1 CaMB peptide (26-mer gating brake peptide)”, the Kd was determined as 42.7 nM in data set [5], 543 nM in data set [6] and 36 nM in data set [7]. For the same substance, the stoichiometry N in data set [5] turned out to be 1. Further, the CaMB peptide to CaM ratio required for a saturating gel-mobility shift (× (peptide to CaM ratio)) in [8] worked out at 1.5.

Take “human Cav3.2 CaMB peptide (26-mer gating brake peptide)”: the stoichiometry N in [5] stood at 1. For the same substance, the Kd amounted to 690 nM in data set [9] and 196 nM in [7]. In addition, the CaMB peptide to CaM ratio required for a saturating gel-mobility shift (× (peptide to CaM ratio)) in data set [8] was found to be 1.5.

In data set [5], “human Cav3.3 CaMB peptide (26-mer gating brake peptide)” came in with a Kd of 383 nM and a stoichiometry N of 1. For the same substance, in data set [8], the CaMB peptide to CaM ratio required for a saturating gel-mobility shift (× (peptide to CaM ratio)) is greater than 4.

Substance “snail LCav3 CaMB peptide (26-mer gating brake peptide)” gave a stoichiometry N in data set [5] of 1. In data set [6], this substance displayed a fold reduced affinity compared with wild-type CaM of 349 fold. For the same substance, the Kd in data set [7] was 10 nM. The CaMB peptide to CaM ratio required for a saturating gel-mobility shift (× (peptide to CaM ratio)) in [8] worked out at 1.
